± gives the uncertainty stated by the source.
experiment: abundance fitness (aPCA) (normalised: wild type 0, dead -1); higher = more abundant; growth selection in yeast, the domain comes from the species named; settings: Homo sapiens

Substance	abundance fitness
NEDD4-like E3 ubiquitin-protein ligase WWP2 P477E, O00308	0.001 ± 0.05
NEDD4-like E3 ubiquitin-protein ligase WWP2 D474E, O00308	-0.192 ± 0.074
NEDD4-like E3 ubiquitin-protein ligase WWP2 G489A, O00308	-0.007 ± 0.041
NEDD4-like E3 ubiquitin-protein ligase WWP2 K453C, O00308	-0.226 ± 0.079
NEDD4-like E3 ubiquitin-protein ligase WWP2 A490D, O00308	0.001 ± 0.061
NEDD4-like E3 ubiquitin-protein ligase WWP2 T469V, O00308	-0.151 ± 0.038
NEDD4-like E3 ubiquitin-protein ligase WWP2 Y461P, O00308	-0.824 ± 0.045
NEDD4-like E3 ubiquitin-protein ligase WWP2 K473R, O00308	-0.081 ± 0.055
NEDD4-like E3 ubiquitin-protein ligase WWP2 R468V, O00308	-0.352 ± 0.036
NEDD4-like E3 ubiquitin-protein ligase WWP2 T469P, O00308	-1.16 ± 0.13
NEDD4-like E3 ubiquitin-protein ligase WWP2 P477A, O00308	0.076 ± 0.052
NEDD4-like E3 ubiquitin-protein ligase WWP2 T470D, O00308	-0.653 ± 0.072
NEDD4-like E3 ubiquitin-protein ligase WWP2 D492V, O00308	-0.143 ± 0.049
NEDD4-like E3 ubiquitin-protein ligase WWP2 P475Y, O00308	-0.984 ± 0.15
Transcription factor SOX-11 I99V, P35716	-0.094 ± 0.05
NEDD4-like E3 ubiquitin-protein ligase WWP2 D464S, O00308	-0.565 ± 0.056
NEDD4-like E3 ubiquitin-protein ligase WWP2 G458M, O00308	-0.148 ± 0.041
NEDD4-like E3 ubiquitin-protein ligase WWP2 Q442N, O00308	0.097 ± 0.086
NEDD4-like E3 ubiquitin-protein ligase WWP2 F462K, O00308	-0.789 ± 0.16
NEDD4-like E3 ubiquitin-protein ligase WWP2 R493T, O00308	0.002 ± 0.056
NEDD4-like E3 ubiquitin-protein ligase WWP2 P475Q, O00308	-0.836 ± 0.11
NEDD4-like E3 ubiquitin-protein ligase WWP2 V463T, O00308	-0.209 ± 0.069
NEDD4-like E3 ubiquitin-protein ligase WWP2 E457C, O00308	-0.155 ± 0.073

Substance	abundance fitness
Transcription factor SOX-11 K85Q, P35716	0.228 ± 0.13
NEDD4-like E3 ubiquitin-protein ligase WWP2 T471Y, O00308	-0.786 ± 0.14
NEDD4-like E3 ubiquitin-protein ligase WWP2 M452F, O00308	-0.097 ± 0.05
NEDD4-like E3 ubiquitin-protein ligase WWP2 G486Q, O00308	-0.023 ± 0.054
NEDD4-like E3 ubiquitin-protein ligase WWP2 P448Q, O00308	0.029 ± 0.054
NEDD4-like E3 ubiquitin-protein ligase WWP2 V459F, O00308	-0.387 ± 0.094
NEDD4-like E3 ubiquitin-protein ligase WWP2 R460E, O00308	-0.183 ± 0.063
NEDD4-like E3 ubiquitin-protein ligase WWP2 E480I, O00308	-0.042 ± 0.047
NEDD4-like E3 ubiquitin-protein ligase WWP2 T471W, O00308	-0.521 ± 0.05
NEDD4-like E3 ubiquitin-protein ligase WWP2 R476S, O00308	-0.271 ± 0.052
NEDD4-like E3 ubiquitin-protein ligase WWP2 P488C, O00308	-0.049 ± 0.058
NEDD4-like E3 ubiquitin-protein ligase WWP2 R493C, O00308	-0.399 ± 0.12
NEDD4-like E3 ubiquitin-protein ligase WWP2 H465I, O00308	-0.207 ± 0.08
NEDD4-like E3 ubiquitin-protein ligase WWP2 E443H, O00308	-0.082 ± 0.044
NEDD4-like E3 ubiquitin-protein ligase WWP2 P444W, O00308	-0.059 ± 0.05
NEDD4-like E3 ubiquitin-protein ligase WWP2 R493S, O00308	-0.201 ± 0.079
NEDD4-like E3 ubiquitin-protein ligase WWP2 T471P, O00308	-1.15 ± 0.13
NEDD4-like E3 ubiquitin-protein ligase WWP2 P475I, O00308	-0.523 ± 0.11
Transcription factor SOX-11 K91T, P35716	0.151 ± 0.056
NEDD4-like E3 ubiquitin-protein ligase WWP2 G486H, O00308	-0.135 ± 0.062
NEDD4-like E3 ubiquitin-protein ligase WWP2 A445F, O00308	0.007 ± 0.035
NEDD4-like E3 ubiquitin-protein ligase WWP2 R493H, O00308	0.065 ± 0.087
NEDD4-like E3 ubiquitin-protein ligase WWP2 P488M, O00308	-0.018 ± 0.057

Substance	abundance fitness
NEDD4-like E3 ubiquitin-protein ligase WWP2 Y491T, O00308	0.039 ± 0.037
NEDD4-like E3 ubiquitin-protein ligase WWP2 T455Y, O00308	-0.62 ± 0.07
NEDD4-like E3 ubiquitin-protein ligase WWP2 E451K, O00308	-0.472 ± 0.076
NEDD4-like E3 ubiquitin-protein ligase WWP2 T470K, O00308	-0.356 ± 0.039
NEDD4-like E3 ubiquitin-protein ligase WWP2 D474Q, O00308	-0.279 ± 0.073
NEDD4-like E3 ubiquitin-protein ligase WWP2 V459Y, O00308	-0.335 ± 0.071
NEDD4-like E3 ubiquitin-protein ligase WWP2 K473Y, O00308	0.087 ± 0.071
NEDD4-like E3 ubiquitin-protein ligase WWP2 D474H, O00308	-0.095 ± 0.097
NEDD4-like E3 ubiquitin-protein ligase WWP2 D464W, O00308	-1.21 ± 0.14
NEDD4-like E3 ubiquitin-protein ligase WWP2 E457D, O00308	-0.068 ± 0.062
NEDD4-like E3 ubiquitin-protein ligase WWP2 A445E, O00308	0.025 ± 0.05
NEDD4-like E3 ubiquitin-protein ligase WWP2 M452A, O00308	-0.01 ± 0.048
NEDD4-like E3 ubiquitin-protein ligase WWP2 W450N, O00308	-0.581 ± 0.099
NEDD4-like E3 ubiquitin-protein ligase WWP2 K453P, O00308	-1.01 ± 0.12
NEDD4-like E3 ubiquitin-protein ligase WWP2 K484F, O00308	-0.24 ± 0.073
NEDD4-like E3 ubiquitin-protein ligase WWP2 M452R, O00308	-0.103 ± 0.035
NEDD4-like E3 ubiquitin-protein ligase WWP2 M440G, O00308	-0.284 ± 0.11
NEDD4-like E3 ubiquitin-protein ligase WWP2 F479Q, O00308	-0.082 ± 0.053
NEDD4-like E3 ubiquitin-protein ligase WWP2 K484P, O00308	-0.05 ± 0.034
NEDD4-like E3 ubiquitin-protein ligase WWP2 E457G, O00308	-0.116 ± 0.037
NEDD4-like E3 ubiquitin-protein ligase WWP2 T455N, O00308	-0.147 ± 0.073
NEDD4-like E3 ubiquitin-protein ligase WWP2 T455F, O00308	-0.912 ± 0.14
NEDD4-like E3 ubiquitin-protein ligase WWP2 P488G, O00308	-0.032 ± 0.04

Substance	abundance fitness
NEDD4-like E3 ubiquitin-protein ligase WWP2 F462G, O00308	-0.8 ± 0.054
NEDD4-like E3 ubiquitin-protein ligase WWP2 E451P, O00308	-1.34 ± 0.3
NEDD4-like E3 ubiquitin-protein ligase WWP2 P488D, O00308	0.033 ± 0.053
NEDD4-like E3 ubiquitin-protein ligase WWP2 P447A, O00308	-0.234 ± 0.043
Transcription factor SOX-11 I96Q, P35716	0.03 ± 0.08
NEDD4-like E3 ubiquitin-protein ligase WWP2 T483C, O00308	-0.005 ± 0.063
NEDD4-like E3 ubiquitin-protein ligase WWP2 Q442P, O00308	-0.067 ± 0.039
NEDD4-like E3 ubiquitin-protein ligase WWP2 R493Y, O00308	-0.055 ± 0.055
NEDD4-like E3 ubiquitin-protein ligase WWP2 V459T, O00308	-0.025 ± 0.059
NEDD4-like E3 ubiquitin-protein ligase WWP2 D492S, O00308	-0.071 ± 0.053
NEDD4-like E3 ubiquitin-protein ligase WWP2 E457K, O00308	-0.118 ± 0.056
NEDD4-like E3 ubiquitin-protein ligase WWP2 G482A, O00308	-0.033 ± 0.042
NEDD4-like E3 ubiquitin-protein ligase WWP2 P447W, O00308	-0.659 ± 0.07
NEDD4-like E3 ubiquitin-protein ligase WWP2 T471I, O00308	-0.701 ± 0.05
NEDD4-like E3 ubiquitin-protein ligase WWP2 Q442T, O00308	0.048 ± 0.03
NEDD4-like E3 ubiquitin-protein ligase WWP2 S487E, O00308	0.025 ± 0.034
NEDD4-like E3 ubiquitin-protein ligase WWP2 K473P, O00308	-1.11 ± 0.12
Transcription factor SOX-11 R86S, P35716	-0.07 ± 0.046
NEDD4-like E3 ubiquitin-protein ligase WWP2 M440C, O00308	-0.491 ± 0.32
NEDD4-like E3 ubiquitin-protein ligase WWP2 F472H, O00308	-0.291 ± 0.033
NEDD4-like E3 ubiquitin-protein ligase WWP2 G458H, O00308	-0.234 ± 0.068

— the Human Domainome abundance scans (Beltran et al. 2025)
